The values that follow come from article PMC6343935.

This test deals with Taggert virus (TAGV) viral ovarian tumor domain protease (vOTU) (Taggert virus (TAGV)). The test is described as follows: ITC. Background: Isothermal titration calorimetry measures the heat released or taken up as one component is titrated into another.

In the case of “ubiquitin (Ub), wild type (from UniProt P0CG48 1-76) (natural protein)”, the dH is -4.68 kcal/mol and the stoichiometry N came to 1.34 sites.

For orientation: stoichiometry N means a count of units in the complex or per binding partner.
